The data set has as its system BPs gp33103 repressor (short, prophage-encoded form) (Mycobacteriophage BPs). Nature of the data set: EMSA. To be noted: EMSA: 20 mM Tris pH 7.5, 10 mM EDTA, 25 mM NaCl, 10 mM spermidine, 1 mM DTT, 1 ug calf thymus DNA in 10 ul, room temperature 30 min, 5% native gel …. For orientation: Mobility shift assays separate free from complexed probe on a gel.
The term Kd denotes the equilibrium constant for the complex coming apart. Read a high Kd as a looser complex. For 5-6 intergenic region (O6), the Kd is 2.75 µM.

Substance 26-27 intergenic region (O27) registered a Kd of 0.9 µM.

“33-34 intergenic region wild type (366 bp)” displayed a Kd of 2.61 µM.

54-55 intergenic region (O55) came in with a Kd of 2.6 µM.

On to 60-61 intergenic region (O61), for which the dissociation constant (Kd) was found to be 3.4 µM.

“CAAACGCAAAAGTTCGGGCGTGGCGCATTTTCCAATAGAC (double strand) [TIR-5]” gave a Kd of 12.5 µM.

Regarding “CACACACGACGCTTGCACCGCGACATATGTCGGTTTTGCAGACGTGCAGGTT (double strand) [O6-L]”, the Kd was found to be 10.5 µM.

On to “GCATCACGGACGCTGCTATCCGACATATGTCGTGGATGATCGGGATATGGCC (double strand) [O27-R]”, for which the Kd worked out at 11 µM.

For the substance “GCATTTTCCAATAGACCGCATATGTCGCTATGTTGGTGCACA (double strand) [O27-L]”, the Kd came out at 38.5 µM.

The substance “GCATTTTCCAATAGACGACATATGTGCCTATGTTGGTGCACA (double strand) [O61-R]” showed a Kd of 19.5 µM.

“TCCAATAGACGACATATGTCGCT (double strand) [TIR-6]” displayed a Kd of 9.5 µM.

As for “TCGGACATGGTGAACGCTTGCGACATATGTCGCCAATGTGTGCATCTTTGCA (double strand) [O55-L]”, the dissociation constant Kd worked out at 8.5 µM.

The record behind these values is PMC4557955.
